One molecule from patent US20220298218A1 (ANTAG THERAPEUTICS, published 2022) can be followed below.

Assay [1] has as its target T1, human GIP receptor (human, UniProt P48546 22-466).
T1 sequence (looked up): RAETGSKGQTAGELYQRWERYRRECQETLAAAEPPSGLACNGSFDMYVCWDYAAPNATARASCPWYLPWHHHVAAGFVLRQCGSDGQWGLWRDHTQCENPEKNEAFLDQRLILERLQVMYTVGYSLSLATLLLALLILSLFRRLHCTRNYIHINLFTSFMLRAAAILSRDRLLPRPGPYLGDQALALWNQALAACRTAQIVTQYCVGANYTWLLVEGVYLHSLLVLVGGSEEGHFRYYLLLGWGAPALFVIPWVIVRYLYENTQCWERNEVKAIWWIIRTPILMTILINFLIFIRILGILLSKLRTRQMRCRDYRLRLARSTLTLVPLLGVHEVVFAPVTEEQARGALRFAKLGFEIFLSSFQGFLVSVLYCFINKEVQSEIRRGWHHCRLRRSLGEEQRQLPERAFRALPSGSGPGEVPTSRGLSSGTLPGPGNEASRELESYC
As to the kind of experiment: cell-based or functional assay.

The target in assay [2] is T1, human GIP receptor. As to the kind of experiment: cell-based or functional assay. The source holds these as a separate data set.

Like-named read-outs stand apart in the source and are kept apart here. Where no end group is shown, it is not given here. The star is where a group is joined. C16 diacid = O=C(O)CCCCCCCCCCCCCCC(=O)*

B1: AT470 (peptide)
peptide: EGTFISDYSIAMDKIK(C16 diacid)QQDFVNWLLAQKGPSSGA-OH
modifications: N-terminus assumed
SMILES: CC[C@H](C)[C@H](NC(=O)[C@H](CO)NC(=O)[C@H](Cc1ccc(O)cc1)NC(=O)[C@H](CC(=O)O)NC(=O)[C@H](CO)NC(=O)[C@@H](NC(=O)[C@H](Cc1ccccc1)NC(=O)[C@@H](NC(=O)CNC(=O)[C@@H](N)CCC(=O)O)[C@@H](C)O)[C@@H](C)CC)C(=O)N[C@@H](C)C(=O)N[C@@H](CCSC)C(=O)N[C@@H](CC(=O)O)C(=O)N[C@@H](CCCCN)C(=O)N[C@H](C(=O)N[C@@H](CCCCNC(=O)CCCCCCCCCCCCCCC(=O)O)C(=O)N[C@@H](CCC(N)=O)C(=O)N[C@@H](CCC(N)=O)C(=O)N[C@@H](CC(=O)O)C(=O)N[C@@H](Cc1ccccc1)C(=O)N[C@H](C(=O)N[C@@H](CC(N)=O)C(=O)N[C@@H](Cc1c[nH]c2ccccc12)C(=O)N[C@@H](CC(C)C)C(=O)N[C@@H](CC(C)C)C(=O)N[C@@H](C)C(=O)N[C@@H](CCC(N)=O)C(=O)N[C@@H](CCCCN)C(=O)NCC(=O)N1CCC[C@H]1C(=O)N[C@@H](CO)C(=O)N[C@@H](CO)C(=O)NCC(=O)N[C@@H](C)C(=O)O)C(C)C)[C@@H](C)CC
On to B1, for which, in the assay with human GIP receptor [1], the “cAMP antagonism” value was 14 nM, the “cAMP antagonism % inhib” value was found to be 100% and the cAMP antagonism log was -7.8 log M. In the assay with human GIP receptor [2], the “cAMP agonism % Emax” value turned out to be 0%, the “cAMP antagonism” value worked out at 20 nM, the “cAMP antagonism % inhib” value stood at 91% and the “cAMP antagonism pIC50” value was determined as 7.7.
